The nature of this series: amyloid nucleation score (Sup35N fusion, yeast selection) (log enrichment); library NNK1; higher = more nucleation; inactive = no reads after selection. The essentials:
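Using DiMSum, nucleation scores were taken as the log enrichment of output over input reads, centred on the mode score of non-aggregating sequences. The input and output reads came from Illumina sequencing of plasmid inserts, with sequences under 100 input reads excluded. The yeast were psi-negative, expressed Sup35N fused to peptides of 20 random codons, were induced with 100 μM copper sulfate for 24 hours, and were grown 7 days at 30°C on medium lacking adenine and uracil.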

From the supplement of paper PMC12042874 come the findings set out here.

± gives the uncertainty stated by the source.

For the substance RKVSANRFSYWRMGKGMYPV, the amyloid nucleation score was determined as 0.042 ± 0.34.

WVFEPMEWFDYKFSYHF: the amyloid nucleation score is -0.255 ± 0.42.

Turning to EIRWSHIFERWV, the amyloid nucleation score came to 0.628 ± 0.38.

SLTVLCKVFFSCNQAGLLHG had an amyloid nucleation score of 0.17 ± 0.5.

With IFLIVMFPLFNDCLHCYKTC, the amyloid nucleation score is 1.3 ± 0.13.

Substance VFCLRLAYNAFREMSAHKC gave an amyloid nucleation score of 3.31 ± 0.18.

As to TISLDRRDAVNYLVAHLCSV, the amyloid nucleation score was -0.146 ± 1.4.

YVEVQVIKWVMKSEVHRGAW: the amyloid nucleation score came to 1.27 ± 0.48.

As for KVGLSMKYRPYS, the amyloid nucleation score came to 2.29 ± 0.22.

NHALYDIWLIALSSRLYCQN gave an amyloid nucleation score of 0.342 ± 0.4.

For the substance VCITNNELVGVFDDEVFIAF, the amyloid nucleation score result was “inactive”.

Regarding LLMAIVCIMIRQGFLRHVSP, the amyloid nucleation score was -0.086 ± 0.56.

Substance GCRMWFAWQVGVILMVDMFI had an amyloid nucleation score of 0.307 ± 0.81.

On to THSRFKVCPVSMLCNAPQQR, for which the amyloid nucleation score came out at 0.626 ± 1.2.

In the case of FPLGTQDRIIRFVESQYDSM, the amyloid nucleation score is -0.516 ± 1.7.

VLVVTALLSRV came in with an amyloid nucleation score of 1.67 ± 0.22.

For RLGTSAMRCQP, the amyloid nucleation score worked out at 0.038 ± 0.78.

SSVYVSIQLGGTLPRWGGVR came in with an amyloid nucleation score of 1.19 ± 0.3.

MGTLDI: the amyloid nucleation score entry is “inactive”.

RGELVPHVVMYNLWKL gave an amyloid nucleation score of 4.21 ± 0.082.

In turn, CISLFFVKCGRQAAHPQSRR showed an amyloid nucleation score of 8.295 ± 0.062.

For the substance LLGYRTYEMEHSCILRPRNK, the amyloid nucleation score was found to be 0.887 ± 0.57.

With SDMLK, the amyloid nucleation score was found to be 0.324 ± 0.43.

With MGVDYARSVW, the amyloid nucleation score is -0.202 ± 0.76.

Consider VVGRTEEEHLQHPSWCMCAL, for which the amyloid nucleation score is 0.128 ± 1.

SEKRR: the amyloid nucleation score came out at 0.075 ± 0.26.

Regarding YTVVLEKTKVMYTVAPPRSL, the amyloid nucleation score is -1.04 ± 2.4.

For TGYWKSFSSAF, the amyloid nucleation score turned out to be 0.072 ± 0.93.

Turning to TPYYPSQKQCRMPRGACVL, the amyloid nucleation score is -0.435 ± 0.48.

On to EVVEWSLTKNCLFHALFIWV, for which the amyloid nucleation score is -0.142 ± 0.3.

Turning to WGRNMKYVRTGVGLINDLVR, the amyloid nucleation score result is “inactive”.

The substance VEVKSCIWDFGCNQRGYGDG gave an amyloid nucleation score of 5.32 ± 0.079.

With YASVVGYLPGCTNINAMKNR, the amyloid nucleation score result is “inactive”.

Consider GVGSSFSTSKAYWVGYECIT, for which the amyloid nucleation score is -0.217 ± 0.41.

The substance GFVMKLLL yielded an amyloid nucleation score of 1.35 ± 0.21.

Turning to VVVFSNYNFVGKCIHVNSEL, the amyloid nucleation score was 7.351 ± 0.07.

In turn, NFRLCLWSDAGLIGKAVFGY returned an amyloid nucleation score of 0.718 ± 0.39.

The substance PRLLLGAHQSYLGACSAGYM yielded an amyloid nucleation score of 1.06 ± 0.71.

Substance KRVIAMLTLIFG displayed an amyloid nucleation score of 0.534 ± 0.64.

As to GAAQWMKNSTIGHARFIADL, the amyloid nucleation score stood at 0.2 ± 0.39.

With WKCLRYPY, the amyloid nucleation score entry is “inactive”.

With SHSTFAVQMRA, the amyloid nucleation score was determined as 8.273 ± 0.047.

Consider WVVLFLLWNGWVDWHIRTEQ, for which the amyloid nucleation score is -0.128 ± 0.36.

In turn, VTMLRSFMHELHSGLKKDLK gave an amyloid nucleation score of 2.06 ± 0.11.

FCGAVVFNVVWCYWNKIAVL came in with an amyloid nucleation score of 1.79 ± 0.12.

With NNSSHGCRNVRNSQMSFVPQ, the amyloid nucleation score is -0.165 ± 0.75.

YFLLACLNVS had an amyloid nucleation score of 0.828 ± 0.26.

As for FILSCISPPYVHCFYCLMFS, the amyloid nucleation score was 0.854 ± 0.9.

Take KCQIGSMVLSYMVELPGDRD: the amyloid nucleation score is -0.171 ± 0.36.

As for VGELFCGWSRRERYPVWSLV, the amyloid nucleation score amounted to 0.255 ± 1.4.

For CMWSRRWGTLLASILVLSYG, the amyloid nucleation score came to 0.081 ± 0.34.

FLLLCRSFFSARTILRCTMV came in with an amyloid nucleation score of 0.631 ± 0.89.

With FIFIDMRRSWDISVKDTRST, the amyloid nucleation score worked out at 6.802 ± 0.066.

In turn, LKASMW displayed an amyloid nucleation score of 0.322 ± 0.37.

On to SKKSSRDLNSTSGRR, for which the amyloid nucleation score was -0.808 ± 1.4.

In turn, LFRYNDWCAYHLPSPWWGNR came in with an amyloid nucleation score of 0.112 ± 0.83.

Turning to AISAYELSRIRVQS, the amyloid nucleation score is 0.487 ± 0.55.
